Test results: patent US20250057968A1, “ANTI-DLL3 ANTIBODY AND PHARMACEUTICAL USE THEREOF, AND ANTIBODY-DRUG CONJUGATE CONTAINING ANTI-DLL3 ANTIBODY” (Jiangsu Hengrui Pharmaceuticals Co., Ltd., priority 2021, published 2025)
Positions count from the first letter of the chain named.

B1: hAb100L1H2 (antibody, human IgG1, kappa, V domains shown)
VH: EVQLVESGGGLVKPGGSLRLSCAASGFTFSDSGMHWIRQAPGKGLEWVAYISSGSSTIHYADTVKGRFTISRDNAKNSLYLQMNSLRAEDTAVYYCASPLYYYGRSYNAVAYWGQGTTVTVSS
VL: DIQMTQSPSSLSASVGDRVTITCHASQNINVWLSWYQQKPGKVPKLLIYKASDLHTGVPSRFSGSGSGTDFTLTISSLQPEDVATYYCQQGQSYPLTFGGGTKVEIKR
B2: hAb100L1H3 (antibody, human IgG1, kappa, V domains shown)
VH: B1 VH with Y102H
VL: B1 VL
B3: hAb100L1H4 (antibody, human IgG1, kappa, V domains shown)
VH: B1 VH with A109G
VL: B1 VL
B4: hAb100L2H1 (antibody, human IgG1, kappa, V domains shown)
VH: B1 VH with A49S
VL: B1 VL with V43I
B5: hAb100L2H2 (antibody, human IgG1, kappa, V domains shown)
VH: B1 VH
VL: B1 VL with V43I
B6: hAb100L2H3 (antibody, human IgG1, kappa, V domains shown)
VH: B1 VH with Y102H
VL: B1 VL with V43I
B7: hAb100L2H4 (antibody, human IgG1, kappa, V domains shown)
VH: B1 VH with A109G
VL: B1 VL with V43I
B8: M100CHI (antibody, human IgG1, kappa, V domains shown)
VH: B1 VH with R19K, G42E, S78T, Y80F, N84T, A88S, V93M, T118S
VL: B1 VL with T5N, V15L, R18T, V19I, K42N, V43I, D70G, V83I, V104L
notes: murine variable regions on human IgG1 / kappa constant regions; also called chimeric antibody of mAb100
B9: hAb6L3H2: humanized antibody of mAb6: hAb6VH2 (SEQ ID NO: 33) + hAb6VL3 (SEQ ID NO: 47), constant regions SEQ ID NO: 28/29 (antibody, V domains shown)
VH: EVQLVQSGAEVKKPGASVKVSCKASGYTFTDYYMNWVRQAPGQRLEWMGIINPYSGVTIYNHKFKGRVTLTVDKSANTAYMELSSLRSEDTAVYYCARQDSLLDYAMDYWGQGTTVTVSS
VL: DIQMTQSPSSLSASVGDRVTITCHASQGISGNMGWLQQKPGKSFKGLIYHGANLEDGVPSRFSGSGSGADYTLTISSLQPEDFATYYCVQYAQFPYTFGGGTKVEIK
modifications: constant regions SEQ ID 28/29; hAb6 VH2; hAb6 VL3
B10: hAb6L3H3: humanized antibody of mAb6: hAb6VH3 (SEQ ID NO: 34) + hAb6VL3 (SEQ ID NO: 47), constant regions SEQ ID NO: 28/29 (antibody, V domains shown)
VH: B9 VH with M48I, V68A
VL: B9 VL
modifications: constant regions SEQ ID 28/29; hAb6 VH3; hAb6 VL3
B11: hAb6L4H4: humanized antibody of mAb6: hAb6VH4 (SEQ ID NO: 35) + hAb6VL4 (SEQ ID NO: 48), constant regions SEQ ID NO: 28/29 (antibody, V domains shown)
VH: B9 VH with Q43K
VL: B9 VL with S43A, F44P, T85D
modifications: constant regions SEQ ID 28/29; hAb6 VH4; hAb6 VL4
B12: hAb6L4H6: humanized antibody of mAb6: hAb6VH6 (SEQ ID NO: 37) + hAb6VL4 (SEQ ID NO: 48), constant regions SEQ ID NO: 28/29 (antibody, V domains shown)
VH: EVQLVQSGSELKKPGASVKVSCKASGYTFTDYYMNWVRQAPGQGLEWMGIINPYSGVTIYNHKFKGRFVLSVDKSSNTAYLQISSLKAEDTAVYYCARQDSLLDYAMDYWGQGTTVTVSS
VL: B9 VL with S43A, F44P, T85D
modifications: constant regions SEQ ID 28/29; hAb6 VH6; hAb6 VL4
B13: hAb6L4H11: humanized antibody of mAb6: hAb6VH11 (SEQ ID NO: 42) + hAb6VL4 (SEQ ID NO: 48), constant regions SEQ ID NO: 28/29 (antibody, V domains shown)
VH: B12 VH with R38K
VL: B9 VL with S43A, F44P, T85D
modifications: constant regions SEQ ID 28/29; hAb6VH11; hAb6 VL4
B14: hAb6L4H13: humanized antibody of mAb6: hAb6VH13 (SEQ ID NO: 44) + hAb6VL4 (SEQ ID NO: 48), constant regions SEQ ID NO: 28/29 (antibody, V domains shown)
VH: B12 VH with R38K, V69A
VL: B9 VL with S43A, F44P, T85D
modifications: constant regions SEQ ID 28/29; hAb6VH13; hAb6 VL4

Tests used:
[1] = molecular target: T1, Human DLL3 full-length protein on cells (human, UniProt Q9NYJ7 27-618); assay: FACS on DLL3/H82 cells
T1 construct: H1184 and DMS53 express DLL3 themselves; The cell line is named under assay; also called H1184 cells; DLL3/H82
T1 sequence: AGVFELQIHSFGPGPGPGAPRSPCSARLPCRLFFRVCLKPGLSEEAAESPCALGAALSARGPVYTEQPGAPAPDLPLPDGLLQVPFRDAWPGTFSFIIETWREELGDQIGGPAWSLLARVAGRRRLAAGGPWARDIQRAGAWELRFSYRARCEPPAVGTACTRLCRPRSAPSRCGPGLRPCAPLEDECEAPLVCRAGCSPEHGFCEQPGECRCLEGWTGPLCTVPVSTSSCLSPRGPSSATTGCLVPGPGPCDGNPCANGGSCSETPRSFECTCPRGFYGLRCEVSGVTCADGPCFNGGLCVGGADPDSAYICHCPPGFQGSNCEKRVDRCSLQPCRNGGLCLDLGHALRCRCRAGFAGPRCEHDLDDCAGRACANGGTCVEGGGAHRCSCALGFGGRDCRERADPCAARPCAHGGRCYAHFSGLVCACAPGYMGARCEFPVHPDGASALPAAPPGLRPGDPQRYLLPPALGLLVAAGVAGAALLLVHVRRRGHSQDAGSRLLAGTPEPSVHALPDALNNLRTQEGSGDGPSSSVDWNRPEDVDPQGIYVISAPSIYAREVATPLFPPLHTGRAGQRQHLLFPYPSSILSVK
Description: Cells of the DLL3-expressing small cell lung cancer cell lines H1184 (ATCC, Cat. No. CRL-5858), DLL3/H82, cynoDLL3/CHO-s, and RatDLL3/CHO-s were suspended at 1×10^6/mL in FACS buffer (1% BSA+pH 7.4 PBS), and the cell suspensions were added to a 96-well round-bottom plate (Corning, 3795) at 100 μL/well. The plate was centrifuged at 300 g for 5 min, and the supernatant was removed. Different concentrations of test antibodies were added at 100 μL/well. The plate was incubated in the dark in a refrigerator at 4° C. for 1 h. After 3 washes by centrifugation at 300 g, working concentrations of APC anti-human IgG Fc (BioLegend, 410712) or PE F(ab′)2-goat anti-human IgG (invitrogen, H10104) were added. The plate was incubated in the dark in a refrigerator at 4° C. for 40 min. After 3 washes by centrifugation at 300 g, the geometric mean fluorescence intensity was measured on an Invitrogen flow cytometer, and the EC50 values of the antibodies in binding to DLL3-expressing cells were calculated.

[2] = molecular target: T2, human DLL3 (ACRO, DLL3-H52H4) (human, UniProt Q9NYJ7 27-479); assay: SPR (Biacore 8K), antibody captured on Protein A chip, 1:1 fit
T2 construct: bought antigen of the Biacore assay; construct not described
T2 sequence (looked up): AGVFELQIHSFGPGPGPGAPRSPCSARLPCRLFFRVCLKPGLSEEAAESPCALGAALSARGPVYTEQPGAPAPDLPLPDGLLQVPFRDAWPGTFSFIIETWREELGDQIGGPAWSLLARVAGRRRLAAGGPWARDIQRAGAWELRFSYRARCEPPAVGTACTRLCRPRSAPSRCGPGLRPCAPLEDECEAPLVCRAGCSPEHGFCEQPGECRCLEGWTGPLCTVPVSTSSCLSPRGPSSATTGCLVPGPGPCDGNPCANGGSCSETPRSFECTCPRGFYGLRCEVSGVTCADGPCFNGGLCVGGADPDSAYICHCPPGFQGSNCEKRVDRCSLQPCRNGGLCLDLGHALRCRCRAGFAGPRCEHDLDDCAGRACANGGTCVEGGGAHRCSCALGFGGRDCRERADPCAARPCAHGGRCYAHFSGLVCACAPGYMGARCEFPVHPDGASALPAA
From the text: (§1) Test antibodies were affinity-captured with a Protein A biosensor chip (Cat. #29127556, Cytiva) for 18 seconds, and then the antigens human DLL3 (ACRO, DLL3-H52H4), cynomolgus monkey DLL3 (KACTUS, DLL-RM103), and mouse DLL3 (KACTUS, DLL-MM103) were allowed to flow over the surface of the chip for 180 seconds, followed by 600 seconds of dissociation. Reaction signals were detected in real time using a Biacore 8K (Cytiva) instrument to obtain association and dissociation curves. After the dissociation in each experimental cycle, the biosensor chip was washed and regenerated with a 10 mM glycine-hydrochloric acid solution (pH 1.5) (Cat. #BR-1003-54, Cytiva). A 1:1 model was fit to the data. The results are shown in Table 12-1, Table 12-2, and Table 12-3.

[3] = molecular target: T3, human DLL3 (Homo sapiens, UniProt Q9NYJ7); assay: Biacore antibody affinity assay, human DLL3; format: binding
T3 construct: purchased ACRO DLL3-H52H4
T3 sequence (Q9NYJ7 27-492 limits assumed): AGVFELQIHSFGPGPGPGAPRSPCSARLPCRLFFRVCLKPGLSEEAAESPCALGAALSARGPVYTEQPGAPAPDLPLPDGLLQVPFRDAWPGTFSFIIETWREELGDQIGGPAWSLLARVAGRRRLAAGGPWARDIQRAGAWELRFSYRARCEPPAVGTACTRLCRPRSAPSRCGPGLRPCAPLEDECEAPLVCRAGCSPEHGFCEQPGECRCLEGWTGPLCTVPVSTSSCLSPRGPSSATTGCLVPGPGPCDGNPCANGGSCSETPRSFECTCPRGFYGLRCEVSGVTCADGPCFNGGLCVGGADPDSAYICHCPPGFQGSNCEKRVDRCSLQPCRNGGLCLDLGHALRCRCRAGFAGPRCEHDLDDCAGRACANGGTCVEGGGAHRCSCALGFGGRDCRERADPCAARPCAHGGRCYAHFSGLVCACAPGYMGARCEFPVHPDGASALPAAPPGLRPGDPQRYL
From the text: as §1

| Molecule | EC50 [1] | Emax [1] | Kd [2] | koff [2] | kon [2] | ka [3] | kd [3] |
| --- | --- | --- | --- | --- | --- | --- | --- |
| B1 | 300 pM | 14800 | 467 pM | 0.000365 s⁻¹ | 781000 M⁻¹ s⁻¹ | – | – |
| B2 | 250 pM | 14900 | 424 pM | 0.000352 s⁻¹ | 832000 M⁻¹ s⁻¹ | – | – |
| B3 | 220 pM | 14900 | 729 pM | 0.000254 s⁻¹ | 348000 M⁻¹ s⁻¹ | – | – |
| B4 | 290 pM | 14400 | 1100 pM | 0.000629 s⁻¹ | 572000 M⁻¹ s⁻¹ | – | – |
| B5 | 160 pM | 14800 | 437 pM | 0.00037 s⁻¹ | 848000 M⁻¹ s⁻¹ | – | – |
| B6 | 300 pM | 14800 | 664 pM | 0.000268 s⁻¹ | 404000 M⁻¹ s⁻¹ | – | – |
| B7 | 320 pM | 13200 | 1000 pM | 0.000655 s⁻¹ | 652000 M⁻¹ s⁻¹ | – | – |
| B8 | 250 pM | 13500 | 528 pM | 0.000546 s⁻¹ | 1.03e+06 M⁻¹ s⁻¹ | – | – |
| B9 | – | – | – | – | – | 716000 M⁻¹ s⁻¹ | 0.00114 s⁻¹ |
| B10 | – | – | – | – | – | 718000 M⁻¹ s⁻¹ | 0.00135 s⁻¹ |
| B11 | – | – | – | – | – | 743000 M⁻¹ s⁻¹ | 0.00108 s⁻¹ |
| B12 | – | – | – | – | – | 1.91e+06 M⁻¹ s⁻¹ | 0.000811 s⁻¹ |
| B13 | – | – | – | – | – | 2.14e+06 M⁻¹ s⁻¹ | 0.000672 s⁻¹ |
| B14 | – | – | – | – | – | 2.16e+06 M⁻¹ s⁻¹ | 0.000695 s⁻¹ |
